For this experiment, the target named is mtDsbC-SARS-CoV-2 RBD Alpha variant (B.1.1.7) fusion protein (SARS-CoV-2) (UniProt P0DTC2). As to the kind of experiment: BLI; biotinylated mtDsbC-RBD (20 µg/mL) immobilised on streptavidin (SA) biosensors, Fabs as analytes at three nanomolar concentrations; Octet RED384, 30 °C, 1000 rpm, 1 × PBS Kinetics Buffer; 1:1 interaction model, global fit. On the technique in general: BLI is a label-free optical method that tracks binding on a fibre tip over time.

REGN10987 (L93Q) Fab: the Kd (commonly the free concentration of one partner at which half of the binding sites on the other are occupied at equilibrium, for simple one-to-one binding) was more than 1 µM.

The values are drawn from paper PMC10019796.
